The values that follow come from publication doi:10.1101/691972, “Structure of D. melanogaster ARC1 reveals a repurposed molecule with characteristics of retroviral Gag” (bioRxiv, 2019).

Data set [1] concerns the molecule itself. Briefly: crystal structure; Se-Met dARC1 CA; orthorhombic (P212121, 1.7 Å) and hexagonal (P6122, 2.3 Å) crystal forms, each with a dimer in the asymmetric unit; NaCl, HEPES pH 7.5 type conditions, 18 °C.
Data set [2] concerns the molecule itself. As to the kind of experiment: SEC-MALS; SEC-MALLS; 25-400 µM loaded in 100 µL on Superdex INCREASE 200 10/300 GL; 20 mM Tris-HCl, 150 mM NaCl, 0.5 mM TCEP, 3 mM NaN3, pH 8.0. For orientation: Size exclusion chromatography separates by hydrodynamic size, large species first.

Changes are numbered by the printed parent chain. Numbers in names are those of the source.

B1: Se-Met substituted dARC1 CA (residues S39-N205) (domain or fragment, Drosophila melanogaster)
chain: SRGKGNFSACTHSFGGTRDHDVVEEFIGNIETYKDVEGISDENALKGISLLFYGMASTWWQGVRKEATTWKEAIALIREHFSPTKPAYQIYMEFFQNKQDDHDPIDTFVIQKRALLAQLPSGRHDEETELDLLFGLLNIKYRKHISRHSVHTFKDLLEQGRIIEHNNPLE
modifications: seleno-methionine substituted (incorporation confirmed by ESI-MS)
notes: dARC1, Drosophila melanogaster, Uniprot Q7K1U0, residues 39-205 (CA domain); the added N-terminal Met was processed; Protein of the two solved crystal forms (orthorhombic and hexagonal); also called SeMet dARC1 CA; seleno-methionine derivative protein; source: E. coli B834 (DE3) in seleno-methionine medium, purified by the identical procedure (Ni-NTA, carboxypeptidase A, SEC); not shown: His6, …
Take B1: the binding result in data set [1] is “binds”.

B2: dARC1 CA (F133A) (domain or fragment, Drosophila melanogaster)
chain: B1 chain with F95A
notes: dARC1, Drosophila melanogaster, Uniprot Q7K1U0, residues 39-205 (CA domain) with F133A; also called F133A mutation; source: E. coli BL21 (DE3), purified
Take B2: the binding result in data set [2] is recorded as “binds”.

B3: dARC1 CA (capsid domain region of D. melanogaster dARC1, residues S39-N205) (domain or fragment, Drosophila melanogaster)
chain: B1 chain
notes: dARC1, Drosophila melanogaster, Uniprot Q7K1U0, residues 39-205 (CA domain); the added N-terminal Met was processed (confirmed by ESI-MS); Native (non-SeMet) protein used for SEC-MALLS and AUC; also called dARC CA; dARC1 CA (S39-N205); source: E. coli BL21 (DE3), purified (Ni-NTA, carboxypeptidase A digestion of the His-tag, Superdex 75 SEC); not shown: His6, C-terminal, cleaved
Usually stoichiometry N stands for a count of units in the complex or per binding partner. On to B3, for which the “stoichiometry N” value in data set [2] came to 2.
